Measured values from patent publication US20110166062A1 (INDIANA UNIVERSITY RESEARCH AND TECHNOLOGY, published 2011).
Bridges are numbered along the chain shown (N, C = ends). Where no end group is shown, it is not given here.

T1: GIP receptor (UniProt P48546 22-466)
T1 sequence (looked up): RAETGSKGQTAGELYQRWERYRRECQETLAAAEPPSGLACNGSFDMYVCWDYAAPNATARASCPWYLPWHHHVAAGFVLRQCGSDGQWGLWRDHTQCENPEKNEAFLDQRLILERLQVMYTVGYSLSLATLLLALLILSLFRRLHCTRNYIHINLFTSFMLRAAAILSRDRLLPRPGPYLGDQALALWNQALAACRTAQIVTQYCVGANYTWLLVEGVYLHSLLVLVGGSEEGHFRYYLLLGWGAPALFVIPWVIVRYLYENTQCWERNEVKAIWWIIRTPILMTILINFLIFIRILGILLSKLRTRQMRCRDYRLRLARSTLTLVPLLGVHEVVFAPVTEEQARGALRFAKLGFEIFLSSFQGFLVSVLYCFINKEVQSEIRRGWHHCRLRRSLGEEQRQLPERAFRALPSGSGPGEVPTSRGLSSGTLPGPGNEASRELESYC


Legend:
GLP-1 receptor = GLP-1 receptor (UniProt P43220 24-463, limits assumed); experiment: cell-based or functional assay
GIP receptor = molecular target: T1, GIP receptor; experiment: cell-based or functional assay

| Binder | EC50 (GLP-1 receptor) | EC50 (GIP receptor) | relative activity (GLP-1 receptor) | relative activity (GIP receptor) |
| --- | --- | --- | --- | --- |
| HSQGTFTSDYSKYLDKIHQEEFIAWLMNT-NH2 [mt-68] | 0.82 nM | – | – | – |
| HSQGTFTSDYSKYLDEIHQKEFIAWLMNT-NH2 (lactam 16-20; N-terminus assumed; SMILES CC[C@H](C)[C@H](NC(=O)[C@H](Cc1ccccc1)NC(=O)[C@H](CCC(=O)O)NC(=O)[C@@H]1CCCCNC(=O)CC[C@H](NC(=O)[C@H](CC(=O)O)NC(=O)[C@H](CC(C)C)NC(=O)[C@H](Cc2ccc(O)cc2)NC(=O)[C@H](CCCCN)NC(=O)[C@H](CO)NC(=O)[C@H](Cc2ccc(O)cc2)NC(=O)[C@H](CC(=O)O)NC(=O)[C@H](CO)NC(=O)[C@@H](NC(=O)[C@H](Cc2ccccc2)NC(=O)[C@@H](NC(=O)CNC(=O)[C@H](CCC(N)=O)NC(=O)[C@H](CO)NC(=O)[C@@H](N)Cc2c[nH]cn2)[C@@H](C)O)[C@@H](C)O)C(=O)N[C@@H]([C@@H](C)CC)C(=O)N[C@@H](Cc2c[nH]cn2)C(=O)N[C@@H](CCC(N)=O)C(=O)N1)C(=O)N[C@@H](C)C(=O)N[C@@H](Cc1c[nH]c2ccccc12)C(=O)N[C@@H](CC(C)C)C(=O)N[C@@H](CCSC)C(=O)N[C@@H](CC(N)=O)C(=O)N[C@H](C(N)=O)[C@@H](C)O) [mt-61] | 0.18 nM | 9.99 nM | – | – |
| YSQGTFTSDYSKYLDEQAAKEFVNWLLAGGPSSGAPPPS-NH2 (lactam 16-20; N-terminus assumed; SMILES CC(C)C[C@H](NC(=O)[C@H](CC(C)C)NC(=O)[C@H](Cc1c[nH]c2ccccc12)NC(=O)[C@H](CC(N)=O)NC(=O)[C@@H](NC(=O)[C@H](Cc1ccccc1)NC(=O)[C@H](CCC(=O)O)NC(=O)[C@@H]1CCCCNC(=O)CC[C@H](NC(=O)[C@H](CC(=O)O)NC(=O)[C@H](CC(C)C)NC(=O)[C@H](Cc2ccc(O)cc2)NC(=O)[C@H](CCCCN)NC(=O)[C@H](CO)NC(=O)[C@H](Cc2ccc(O)cc2)NC(=O)[C@H](CC(=O)O)NC(=O)[C@H](CO)NC(=O)[C@@H](NC(=O)[C@H](Cc2ccccc2)NC(=O)[C@@H](NC(=O)CNC(=O)[C@H](CCC(N)=O)NC(=O)[C@H](CO)NC(=O)[C@@H](N)Cc2ccc(O)cc2)[C@@H](C)O)[C@@H](C)O)C(=O)N[C@@H](CCC(N)=O)C(=O)N[C@@H](C)C(=O)N[C@@H](C)C(=O)N1)C(C)C)C(=O)N[C@@H](C)C(=O)NCC(=O)NCC(=O)N1CCC[C@H]1C(=O)N[C@@H](CO)C(=O)N[C@@H](CO)C(=O)NCC(=O)N[C@@H](C)C(=O)N1CCC[C@H]1C(=O)N1CCC[C@H]1C(=O)N1CCC[C@H]1C(=O)N[C@@H](CO)C(N)=O) [mt-127] | 0.055 nM | 0.518 nM | – | – |
| YAPGTFISDYSIAMDKIHQQDFVNWLLAQKGKKNWLKHNITQ-NH2 [mt-101] | – | 71.3 nM | – | 0.06% |
| HSQGTFTSDYSKYLDKIHQEEFIAWLMNT-NH2 (lactam 16-20; N-terminus assumed; SMILES CC[C@H](C)[C@H](NC(=O)[C@H](Cc1ccccc1)NC(=O)[C@H](CCC(=O)O)NC(=O)[C@@H]1CCC(=O)NCCCC[C@H](NC(=O)[C@H](CC(=O)O)NC(=O)[C@H](CC(C)C)NC(=O)[C@H](Cc2ccc(O)cc2)NC(=O)[C@H](CCCCN)NC(=O)[C@H](CO)NC(=O)[C@H](Cc2ccc(O)cc2)NC(=O)[C@H](CC(=O)O)NC(=O)[C@H](CO)NC(=O)[C@@H](NC(=O)[C@H](Cc2ccccc2)NC(=O)[C@@H](NC(=O)CNC(=O)[C@H](CCC(N)=O)NC(=O)[C@H](CO)NC(=O)[C@@H](N)Cc2c[nH]cn2)[C@@H](C)O)[C@@H](C)O)C(=O)N[C@@H]([C@@H](C)CC)C(=O)N[C@@H](Cc2c[nH]cn2)C(=O)N[C@@H](CCC(N)=O)C(=O)N1)C(=O)N[C@@H](C)C(=O)N[C@@H](Cc1c[nH]c2ccccc12)C(=O)N[C@@H](CC(C)C)C(=O)N[C@@H](CCSC)C(=O)N[C@@H](CC(N)=O)C(=O)N[C@H](C(N)=O)[C@@H](C)O) [mt-69] | 0.41 nM | 14.6 nM | – | 0.57% |
| HSQGTFTSDYSKYLDEIHQKEFIAWLMNT-NH2 (lactam 12-16; N-terminus assumed; SMILES CC[C@H](C)[C@H](NC(=O)[C@H](Cc1ccccc1)NC(=O)[C@H](CCC(=O)O)NC(=O)[C@H](CCCCN)NC(=O)[C@H](CCC(N)=O)NC(=O)[C@H](Cc1c[nH]cn1)NC(=O)[C@@H](NC(=O)[C@@H]1CCC(=O)NCCCC[C@H](NC(=O)[C@H](CO)NC(=O)[C@H](Cc2ccc(O)cc2)NC(=O)[C@H](CC(=O)O)NC(=O)[C@H](CO)NC(=O)[C@@H](NC(=O)[C@H](Cc2ccccc2)NC(=O)[C@@H](NC(=O)CNC(=O)[C@H](CCC(N)=O)NC(=O)[C@H](CO)NC(=O)[C@@H](N)Cc2c[nH]cn2)[C@@H](C)O)[C@@H](C)O)C(=O)N[C@@H](Cc2ccc(O)cc2)C(=O)N[C@@H](CC(C)C)C(=O)N[C@@H](CC(=O)O)C(=O)N1)[C@@H](C)CC)C(=O)N[C@@H](C)C(=O)N[C@@H](Cc1c[nH]c2ccccc12)C(=O)N[C@@H](CC(C)C)C(=O)N[C@@H](CCSC)C(=O)N[C@@H](CC(N)=O)C(=O)N[C@H](C(N)=O)[C@@H](C)O) [mt-63] | 0.31 nM | – | – | – |

Second part, the binder after the results:

| EC50 (GLP-1 receptor) | EC50 (GIP receptor) | relative activity (GLP-1 receptor) | relative activity (GIP receptor) | Binder |
| --- | --- | --- | --- | --- |
| 9.94 nM | 1.09 nM | – | – | YAQGTFISDYSKYLDEQAAKEFVNWLLAGGPSSGAPPPS-NH2 (lactam 16-20; N-terminus assumed; SMILES CC[C@H](C)[C@H](NC(=O)[C@H](Cc1ccccc1)NC(=O)[C@@H](NC(=O)CNC(=O)[C@H](CCC(N)=O)NC(=O)[C@H](C)NC(=O)[C@@H](N)Cc1ccc(O)cc1)[C@@H](C)O)C(=O)N[C@@H](CO)C(=O)N[C@@H](CC(=O)O)C(=O)N[C@@H](Cc1ccc(O)cc1)C(=O)N[C@@H](CO)C(=O)N[C@@H](CCCCN)C(=O)N[C@@H](Cc1ccc(O)cc1)C(=O)N[C@@H](CC(C)C)C(=O)N[C@@H](CC(=O)O)C(=O)N[C@H]1CCC(=O)NCCCC[C@@H](C(=O)N[C@@H](CCC(=O)O)C(=O)N[C@@H](Cc2ccccc2)C(=O)N[C@H](C(=O)N[C@@H](CC(N)=O)C(=O)N[C@@H](Cc2c[nH]c3ccccc23)C(=O)N[C@@H](CC(C)C)C(=O)N[C@@H](CC(C)C)C(=O)N[C@@H](C)C(=O)NCC(=O)NCC(=O)N2CCC[C@H]2C(=O)N[C@@H](CO)C(=O)N[C@@H](CO)C(=O)NCC(=O)N[C@@H](C)C(=O)N2CCC[C@H]2C(=O)N2CCC[C@H]2C(=O)N2CCC[C@H]2C(=O)N[C@@H](CO)C(N)=O)C(C)C)NC(=O)[C@H](C)NC(=O)[C@H](C)NC(=O)[C@H](CCC(N)=O)NC1=O) [mt-145] |
| 0.041 nM | 0.132 nM | 163% | 36.4% | YAEGTFTSDYSIYMDEQAAKEFVNWLLAGGPSSGAPPPS-NH2 (lactam 16-20; N-terminus assumed; SMILES CC[C@H](C)[C@H](NC(=O)[C@H](CO)NC(=O)[C@H](Cc1ccc(O)cc1)NC(=O)[C@H](CC(=O)O)NC(=O)[C@H](CO)NC(=O)[C@@H](NC(=O)[C@H](Cc1ccccc1)NC(=O)[C@@H](NC(=O)CNC(=O)[C@H](CCC(=O)O)NC(=O)[C@H](C)NC(=O)[C@@H](N)Cc1ccc(O)cc1)[C@@H](C)O)[C@@H](C)O)C(=O)N[C@@H](Cc1ccc(O)cc1)C(=O)N[C@@H](CCSC)C(=O)N[C@@H](CC(=O)O)C(=O)N[C@H]1CCC(=O)NCCCC[C@@H](C(=O)N[C@@H](CCC(=O)O)C(=O)N[C@@H](Cc2ccccc2)C(=O)N[C@H](C(=O)N[C@@H](CC(N)=O)C(=O)N[C@@H](Cc2c[nH]c3ccccc23)C(=O)N[C@@H](CC(C)C)C(=O)N[C@@H](CC(C)C)C(=O)N[C@@H](C)C(=O)NCC(=O)NCC(=O)N2CCC[C@H]2C(=O)N[C@@H](CO)C(=O)N[C@@H](CO)C(=O)NCC(=O)N[C@@H](C)C(=O)N2CCC[C@H]2C(=O)N2CCC[C@H]2C(=O)N2CCC[C@H]2C(=O)N[C@@H](CO)C(N)=O)C(C)C)NC(=O)[C@H](C)NC(=O)[C@H](C)NC(=O)[C@H](CCC(N)=O)NC1=O) [mt-142] |
| 0.142 nM | 0.569 nM | – | – | YSQGTFTSDYSKYLDEQAAKEFIAWLLAGGPSSGAPPPS-NH2 (lactam 16-20; N-terminus assumed; SMILES CC[C@H](C)[C@H](NC(=O)[C@H](Cc1ccccc1)NC(=O)[C@H](CCC(=O)O)NC(=O)[C@@H]1CCCCNC(=O)CC[C@H](NC(=O)[C@H](CC(=O)O)NC(=O)[C@H](CC(C)C)NC(=O)[C@H](Cc2ccc(O)cc2)NC(=O)[C@H](CCCCN)NC(=O)[C@H](CO)NC(=O)[C@H](Cc2ccc(O)cc2)NC(=O)[C@H](CC(=O)O)NC(=O)[C@H](CO)NC(=O)[C@@H](NC(=O)[C@H](Cc2ccccc2)NC(=O)[C@@H](NC(=O)CNC(=O)[C@H](CCC(N)=O)NC(=O)[C@H](CO)NC(=O)[C@@H](N)Cc2ccc(O)cc2)[C@@H](C)O)[C@@H](C)O)C(=O)N[C@@H](CCC(N)=O)C(=O)N[C@@H](C)C(=O)N[C@@H](C)C(=O)N1)C(=O)N[C@@H](C)C(=O)N[C@@H](Cc1c[nH]c2ccccc12)C(=O)N[C@@H](CC(C)C)C(=O)N[C@@H](CC(C)C)C(=O)N[C@@H](C)C(=O)NCC(=O)NCC(=O)N1CCC[C@H]1C(=O)N[C@@H](CO)C(=O)N[C@@H](CO)C(=O)NCC(=O)N[C@@H](C)C(=O)N1CCC[C@H]1C(=O)N1CCC[C@H]1C(=O)N1CCC[C@H]1C(=O)N[C@@H](CO)C(N)=O) [mt-139] |
